Entries after “also recorded” stand apart in the source; their conditions may differ.

The test system of data set [1] is thromboses of a rabbit's jugular vein. Description: Thrombolytic activity on model of thrombosis of rabbit's jugular vein (lysis of thrombus). The data set is classed as in vivo. The text has this: (§1) The study of the specific (thrombolytic) effect of the polysaccharide fibrinolysin derivative according to the present invention has been studied on models of thromboses of a rabbit's jugular vein and a dog's femoral vein or artery. Thrombi of 1 to 2.5 cm size were formed in the above-mentioned animals which fully obliterated the cross-section of a blood vessel. The administration of the test preparation at the background of heparin was started one hour after the thrombus formation.
(§2) On the basis of an expected prolonged fibrinolytic effect of the preparation according to the present invention, a test dose of the preparation ranging from 400 to 4,000 units per kg of the bodyweight is dissolved in a physiological solution, 20-30 ml for rabbits and 50-100 ml for dogs, and injected by means of a syringe in a jet-like manner intravenously over 20 minutes, not following the instruction on the use of fibrinolysin (intravenously by the dropwise method at a rate of 10-12 drops per minute).
(§3) The dynamics of the thrombus formation and lysis was observed visually and by palpation during 6 hours of the experiment, after one, two and three days. The angiography and fluorometry were carried out prior to the beginning of the treatment and one day after the administration of the preparation.

The subject of data set [2] is thromboses of a dog's femoral vein or artery. The data set is described as follows: Thrombolytic activity on model of thrombosis of dog's femoral vein (lysis of thrombus). Type of data set: in vivo. The conditions noted are these: dogs, n=1.
Description: as §1, §2, §3

In data set [3] the test system is euglobulin fraction of dog's plasma. The data set is described as follows: Lysis duration of the euglobulin fraction of dog's plasma with experimental thrombosis. Type of data set: in vivo. The source says: (§4) The prolonged effect of the fibrinolysin derivative according to the present invention has been studied in experiments on dogs in comparison with the effect of native fibrinolysin.
Variation of lysis duration (in minutes) of the euglobulin
fraction of dog's plasma with experimental thrombosis upon
administration of the fibrinolysin derivative according to
the present invention and native fibrinolysin

The next data set relates to thrombin time. The data set is described as follows: Thrombin time in dogs with experimental thrombosis. Type of data set: in vivo, dog.
Description: as §4
Variation of thrombin time (in seconds) in dogs with expe-
rimental thrombosis after administration of the fibrinolysin
derivative according to the present invention and native

Another data set deals with blood coagulation. The data set is described as follows: Blood coagulation and bleeding during therapy of experimental thrombosis. The data set is classed as in vivo, rabbit.
Description: as §1, §2, §3

The subject of another data set is experimental thrombosis. The data set is described as follows: Duration of fibrinolytic effect and effective dose in experimental thrombosis. Type of data set: in vivo, rabbits, dogs.
Description: as §1, §2, §3

The nature of data set [4]: Fibrinolytic activity of the preparation. Type of data set: biochemical. The settings on record: for Specific (fibrinolytic) activity: lyophilized preparation; for Total activity relative to the initial value: of the initial value.
Data set [5] in a line: Solubility and hygroscopicity of the preparation. The data set is classed as physicochemical. The conditions noted are these: for Solubility in 0.9% isotonic solution of sodium chloride: 0.9% sodium chloride; for Hygroscopicity: lyophilized powder.
Setting [6] is: before administration (baseline).

B1: Fibrinolysin: native enzyme; thrombolytic preparation administered intravenously (protein, UniProt P00747 20-580; P00747 581-810, looked up)
Plasmin heavy chain A: EPLDDYVNTQGASLFSVTKKQLGAGSIEECAAKCEEDEEFTCRAFQYHSKEQQCVIMAENRKSSIIIRMRDVVLFEKKVYLSECKTGNGKNYRGTMSKTKNGITCQKWSSTSPHRPRFSPATHPSEGLEENYCRNPDNDPQGPWCYTTDPEKRYDYCDILECEEECMHCSGENYDGKISKTMSGLECQAWDSQSPHAHGYIPSKFPNKNLKKNYCRNPDRELRPWCFTTDPNKRWELCDIPRCTTPPPSSGPTYQCLKGTGENYRGNVAVTVSGHTCQHWSAQTPHTHNRTPENFPCKNLDENYCRNPDGKRAPWCHTTNSQVRWEYCKIPSCDSSPVSTEQLAPTAPPELTPVVQDCYHGDGQSYRGTSSTTTTGKKCQSWSSMTPHRHQKTPENYPNAGLTMNYCRNPDADKGPWCFTTDPSVRWEYCNLKKCSGTEASVVAPPPVVLLPDVETPSEEDCMFGNGKGYRGKRATTVTGTPCQDWAAQEPHRHSIFTPETNPRAGLEKNYCRNPDGDVGGPWCYTTNPRKLYDYCDVPQCAAPSFDCGKPQVEPKKCPGR
Plasmin light chain B: VVGGCVAHPHSWPWQVSLRTRFGMHFCGGTLISPEWVLTAAHCLEKSPRPSSYKVILGAHQEVNLEPHVQEIEVSRLFLEPTRKDIALLKLSSPAVITDKVIPACLPSPNYVVADRTECFITGWGETQGTFGAGLLKEAQLPVIENKVCNRYEFLNGRVQSTELCAGHLAGGTDSCQGDSGGPLVCFEKDKYILQGVTSWGLGCARPNKPGVYVRVSRFVTWIEGVMRNN
modifications: Plasmin
notes: native enzyme; thrombolytic preparation administered intravenously
For the molecule B1, the “Efficiency of the therapy (lysis of thrombus)” value is recorded as “no lysis” in data set [1] (rabbits, 600 units/kg i.v.); “full lysis; also recorded: no lysis” in data set [1] (rabbits, 800 units/kg i.v. (Table 1: 2 animals full lysis, 1 animal no lysis)); “no thrombolytic effect in all cases” in data set [1] (rabbits, 800 units/kg i.v. (Table 1: 2 animals full lysis, 1 animal no lysis), listed as fibrinolysin); “full lysis” in data set [1] (rabbits, 1,200 units/kg i.v.); “full lysis” in data set [1] (rabbits, 2,000 units/kg i.v.); “full lysis” in data set [1] (rabbits, 4,000 units/kg i.v.). In addition, the “Efficiency of the therapy (lysis of thrombus)” value in data set [2] (femoral vein, 800 units/kg i.v.) is listed as “no lysis”; in data set [2] (femoral vein, 1,600 units/kg i.v.) it was “full lysis”. In data set [1] (rabbits, 4,000 units/kg i.v.), the Death of animals entry is on record as “death of animals”. The figures for the “Lysis duration of the euglobulin fraction” value in data set [3] (after 2 hours), in data set [3] (after 1 day) and in data set [3] (after 2 days) were 3 min, 105 min and 90 min, respectively. For the same molecule, the “Lysis duration of the euglobulin fraction, initial parameter” value in data set [3] (setting [6]) is 38 min. For the same molecule, the Thrombin time in the data set with thrombin time (after 2 hours) turned out to be 195 s; in the data set on thrombin time (after 1 day) it was 95 s; with thrombin time (after 2 days), 97 s. In addition, the “Thrombin time, initial parameter” value in the data set on thrombin time (setting [6]) amounted to 22 s. In the data set with blood coagulation (during treatment), the Bleeding result is “bleeding”. In addition, the “Changes in the third phase of blood coagulation” value in the data set on blood coagulation (during treatment) is on record as “pathological changes in the third phase of blood coagulation”. For the same molecule, the Content of fibrinogen result with blood coagulation (first hours after administration) is given as “down to zero”. In the data set with experimental thrombosis (800 units/kg of the bodyweight), the “Lysis of a thrombus at the minimal therapeutic dose” value was “does not always cause the lysis of a thrombus”. In addition, the “Duration of the fibrinolytic effect” value in the data set with experimental thrombosis (after administration) is “limited to one day”. In the data set on experimental thrombosis (single intravenous jet-like infusion), the “Minimal effective (therapeutical) dose” value came out at 800 units/kg.

B2: 1: polysaccharide derivative of fibrinolysin from oxidized polyglucin with the molecular mass of 20,000, reduced with sodium borohydride (conjugate, UniProt P00747 20-580; P00747 581-810, looked up)
Plasmin heavy chain A: B1 Plasmin heavy chain A
Plasmin light chain B: B1 Plasmin light chain B
modifications: plasmin conjugated to oxidized polyglucin, borohydride-reduced
notes: polysaccharide derivative of fibrinolysin from oxidized polyglucin with the molecular mass of 20,000, reduced with sodium borohydride
As for B2, in data set [4], the “Specific (fibrinolytic) activity” value is on record as 21.2 units/mg and the “Total activity relative to the initial value” stood at 31.0%. Further, in data set [4] (whole batch), the Total activity amounted to 48200 units. In addition, in data set [5], the “Solubility in 0.9% isotonic solution of sodium chloride” value is “soluble”, the “Solubility in 95% ethanol” value is “substantially insoluble”, the Solubility in chloroform result is recorded as “substantially insoluble” and the Solubility in ether entry was “substantially insoluble”. Moreover, in data set [5], the Hygroscopicity result is on record as “hygroscopic” and the Solubility in water result is “soluble”.

B3: 2: polysaccharide derivative of fibrinolysin from oxidized polyglucin with the molecular mass of 110,000 and the oxidation degree of 20±2% (conjugate, UniProt P00747 20-580; P00747 581-810, looked up)
Plasmin heavy chain A: B1 Plasmin heavy chain A
Plasmin light chain B: B1 Plasmin light chain B
modifications: plasmin conjugated to oxidized polyglucin
B3: in data set [4], the “Specific (fibrinolytic) activity” value was 24 units/mg and the “Total activity relative to the initial value” was found to be 30%. Besides, in data set [5], the “Solubility in 0.9% isotonic solution of sodium chloride” value is “readily soluble”, the “Solubility in 95% ethanol” value is reported as “substantially insoluble”, the Solubility in chloroform entry was “substantially insoluble” and the Solubility in ether entry is recorded as “substantially insoluble”. In data set [5], the Hygroscopicity entry is “hygroscopic” and the Solubility in water result was “readily soluble”.

Values taken from US4446316A, “Dextran derivative of fibrinolysin” (Vsesojuzny Kardiologichesky Nauchny Tsentr, priority 1980, dated 1984).
